Assay results: patent US20190300590A1 (PROTAGONIST THERAPEUTICS, published 2019)

T1: IL23R_huFC (human, UniProt Q5VWK5 24-353)
T1 sequence (looked up): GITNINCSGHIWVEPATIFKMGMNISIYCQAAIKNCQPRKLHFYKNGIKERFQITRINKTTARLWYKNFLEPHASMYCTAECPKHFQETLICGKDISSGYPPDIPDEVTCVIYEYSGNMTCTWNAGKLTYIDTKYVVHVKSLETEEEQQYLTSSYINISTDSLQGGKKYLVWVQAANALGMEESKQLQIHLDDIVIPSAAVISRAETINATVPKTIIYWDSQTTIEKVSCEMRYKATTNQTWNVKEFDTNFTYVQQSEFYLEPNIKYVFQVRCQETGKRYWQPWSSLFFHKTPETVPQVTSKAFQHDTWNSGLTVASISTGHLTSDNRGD


Experiments:
[1] = biological target: mixture of IL-12Rβ1_huFC and IL-23R_huFC (mixed surface) (human, UniProt P42701 24-540; Q5VWK5 24-353, limits assumed); assay: SPR, mixed surface of IL-12Rβ1 and IL-23R
IL23R_huFC = biological target: T1, IL23R_huFC; assay: IL23-IL23R competitive ELISA, IC50 grade

Row | fold of affinity against Compound C [1] [fold] | IC50 (IL23R_huFC) [nM] | Binder
1 | ~14 |  | Recombinant human IL-23 (Humanzyme) (ligand) chain 1: RAVPGGSSPAWTQCQQLSQKLCTLAWSAHPLVGHMDLREEGDEETTNDVPHIQCGDGCDPQGLRDNSQFCLQRIHQGLIFYEKLLGSDIFTGEPSLLPDSPVGQLHASLLGLSQLLQPEGHHWETQQIPSLSPSQPWQRLLLRFKILRSLQAFVAVAARVFAHGAATLSP chain 2: IWELKKDVYVVELDWYPDAPGEMVVLTCDTPEEDGITWTLDQSSEVLGSGKTLTIQVKEFGDAGQYTCHKGGEVLSHSLLLLHKKEDGIWSTDILKDQKEPKNKTFLRCEAKNYSGRFTCWWLTTISTDLTFSVKSSRGSSDPQGVTCGAATLSAERVRGDNKEYEYSVECQEDSACPAAEESLPIEVMVDAVHKLKYENYTSSFFIRDIIKPDPPKNLQLKPLKNSRQVEVSWEYPDTWSTPHSYFSLTFCVQVQGKSKREKKDRVFTDKTSATVICRKNASISVRAQDRYYSSSWSEWASVPCS
2 |  | 25 to 100 | CADWVCYWHTFGAK (not fully specified; Ac-; [β-Ala]; [(D)Lys]; DIG through Lysine) [(Ac-CADWVCYWHTFG-[β-Ala]-[(D)Lys]-OH)2DIG]
